# Assay results published in the DeepSol protein solubility set.
# Assay: soluble on expression in E. coli; label from the status in PepcDB or PDB records
row,Sequence,soluble on expression in E. coli
1,MADPLSKEEDIQHRPDSPPLGLLDPSRIQNPLANDQLHQVPQQQNPSGFVMPEQPRQQPPPQTWQRTPTMSPANIFQGGSGTPGSQRSSTGTPNHQMGNPPQHQQQQFFHGESPAHSQGTPMTPQSAGMPGSNCGTPQSAGGPPTSVPYDYQQAQMQQQQHAQAMAAAAAAQQQQQQHLQQQQYAQNPQQMHDSPYRQHQMMQMHQHPGHPSQYPPGYPQQQAAQWQQQMYARQAAAQAQAQAQAQAQAQAQQRAAAQRVPVPYPPGAYPPGMPGPMTPGYPAQAPAAPRTTPGSAGPGTGPPGTPQRPQYPQGTNPQPQQAQFTYPPTQQMTPTGQPPGYPGMPGTPTFSSPAHQMFRQGQPTAPPGMRQYISPQAGQQQPTPGTPHRFAPPGPSGTTSSPHFAPGAPGADLRSPSLMSPNQQSQQHTPVLPRSLHNEMTSHGMRPIALPSQPLPQTQGTPQPILSASSLPPQSAGATQFVYRPQQPNQMNTMNQMNQMHHDVNPFPIQMNVDPELYLTGIHFHCFDSEKLFEDKLDRKNLEFMIKYHGGDIEFEASKFHERIHQITHVLVDSCRNTNVMTSLEHRKRIVSIQWIIDVMERERVELPWRIAHLPPPFNENFRPYLGKLFSLSGFDSSERAAISFMAEMMGAKITPFLARQNDLLIAKQPADKVTRAQEWKVPVVNFQWIADAYVCDEASPQKRPNVENPRYQLENPVMTNVNTSPNHIEGASQEFGAMMSCWKSQTIIADQAYEKARQNRKTLQNNTFFFPSKRLSDQAVAPTEDEIKSSRARLDEIKTHWEEHQEKMKDTPLSKEFYRVREPQARVSAWFGEGIDDEALTILKKKLEFLGGECVEKIRDATHVILISGRRSLVLLESIIRGKNIMDPEWIVDSYKQKMWLDTLDYFLHDKELEKEFAYNCKRSVLRARNKPVFEDIEFHVTRFVEPNQNDLVRLIELGGGNVHSEKPDPKYLAKCVETEQPFIIISCENDARFLSYLAGSKLPIYNVDLVLFAMLRQQIEPLPQYRIPIPIVVKTPVFRQPPPYTAPPKDQEPAASLASEPTRAADVLSENS,not soluble
2,MADVATKHPMEDEVKKTEASSLVGKLETDVEIKASADKFHHMFAGKPHHVSKASPGNIQGCDLHEGDWGTVGSIVFWNYVHDGEAKVAKERIEAVEPDKNLITFRVIEGDLMKEYKSFLLTIQVTPKPGGPGSIVHWHLEYEKISEEVAHPETLLQFCVEVSKEIDEHLLAEEEEVKTPETPSLVGKLETDVEIKASAEKFHHMFAGKPHHVSKASPGNIQGCDLHEGDWGQVGSIVFWNYVHGKEAKVAKERIEAVEPNKNLITFRVIDGDLMKEYKSFLLTIQVTPKLGGPGSIVHWHLEYEKISEEVAHPETLLQFCVEVSKEIDEHLLAEE,soluble
3,MADVKEKINLLDVIPFRSENITAEKGSDGTVTIAFPRFKYEWMRRFLLPKGMSADIHVRLEDHGTAVWELIDGKRTVRRIIEELAEHFNYEENYESRITAYITQLQKDGFVKLVIEN,not soluble
4,MAEAESVSVDGWDFSWLDGRATEQRPSWGYQRLMGERLARANAALDIQTGGGEVLAGAMTMPPVMVATESWPPNVAKATALLHPLGAVVVADADEPPLPFAEGAFDLVTSRHPATVWWDEIARVLRPGGTYFSQHVGHASVFELVEYFLGPQPTRPASSSRPANAADSAHRLRPVEGLPDDVGVPGVLGGLPDDVEQDPARGPA,not soluble
5,MAEERHHTEHIPQWKKDEIENIKELIQSHKVFGMVRIEGILATKIQKIRRDLKDVAVLKVSRNTLTERALNQLGESIPEMTRYLDNQTALIFTNESPFKLYKLLEQTKTPSPIKAGAIAPEDIIVQKGPTSFPPGPILGELQSAGIPASIDAGKVAVKETKVVCKAGEAVPQKLATMLSKLEIYPLIVGLDLRAAYDDGTIYEPELLAVDESKYFSDIIRAAQNAFNLSVNTAYPTGATIGTLLAKAYAESKSLGVNAVILEPGVMDSLLAKAHVQMTSVASEAAEKDANAVDDDLREVLGAAASAAAAATVAAPAAEEEKKEEEPEEEEEDHAEEDGMAGLGALFGLEHHHHHH,soluble
6,MAEHECVQLVPIFSELGSEQLDIIESIVRHHHYPAGSTLFGADDPLDSLMIVANGQVKVYQLAANGREQLLYLLQTGDIDGEAALFENQRRTSFGEALVPTDVCSIRRSDFQDLMQKYPSISINVLNVFGKRLNQLERQTTSTATESVEARLANYITETAAALKTDTFKLPLKKKDLATFLGTTPESISRKLALFERQGLITQKPGKVIEINDADQLLLTE,soluble
7,MAEIPLFPLSNALFPAGVLRLRVFEIRYLDMVRRCIADGSEFGVVVLEQGTEVRRPDGREVLARAGTMARIDHWEAPMPALLELACTGTGRFRLHACTQGKYGLWTGQAEPVPDDAPLEVPPELARSASALGRLIARLQREGVPPHIMPMAAPFRLDDCGWVADRWAEMLSLPPADKARLLLLPPLDRLREIDAVLAADGHALEHHHHHH,soluble
8,MAEKFKIIMTEALSLYIWGCNILNTEKLETLLGFYKQYKALSEYIDKKYKLSLNDLAVLDLTMKHCKDEKVLMQSFLKTAMDELDLSRTKLLVSIRRLIEKERLSKVRSSKDERKIYIYLNNDDISKFNALFEDVEQFLNI,not soluble
9,MAEKSCSLTEFVGTAIGDTLGLVIANVDTALLDAMKLEKRYRSIGILGARTGAGPHIMAADEAVKATNTEVVSIELPRDTKGGAGHGSLIILGGNDVSDVKRGIEVALKELDRTFGDVYGNEAGHIELQYTARASYALEKAFGAPIGRACGIIVGAPASVGVLMADTALKSANVEVVAYSSPAHGTSFSNEAILVISGDSGAVRQAVTSAREIGKTVLATLGSEPKNDRPSYI,not soluble
10,MAELNTHVNVKEKIYAVRSVVPNKSNNEIVLVLQQFDFNVDKAVQAFVDGSAIQVLKEWNMTGKKNNKRKRSKSKQHQGNKDAKDKVERPEAGPLQPQPPQIQNGPMNGCEKDSSSTDSANEKPALIPREKKISILEEPSKALRGVTGPNIEKSVKDLQRCTVSLTRYRVMIKEEVDSSVKKIKAAFAELHNCIIDKEVSLMAEMDKVKEEAMEILTARQKKAEELKRLTDLASQMAEMQLAELRAEIKHFVSERKYDEELGKAARFSCDIEQLKAQIMLCGEITHPKNNYSSRTPCSSLLPLLNAHAATSGKQSNFSRKSSTHNKPSEGKAANPKMVSSLPSTADPSHQTMPANKQNGSSNQRRRFNPQYHNNRLNGPAKSQGSGNEAEPLGKGNSRHEHRRQPHNGFRPKNKGGAKNQEASLGMKTPEAPAHSEKPRRRQHAADTSEARPFRGSVGRVSQCNLCPTRIEVSTDAAVLSVPAVTLVA,soluble
11,MAELQFPGVYVEDVGHLAFGTLKLTEKSLNFKGDKGGKSVNVTGSDIDKLKWQKLGNKPGLRVGLNDGGAHRFGGFKDTDLEKIQSFTSSNWSQSIDQSNLFIKGWNYGQAEVKGKTVEFSWEDKPIFEIPCTNVSNVIANKNEAVLEFHQNDDSKVQLMEMRFHMPIDLENEEDADKVEEFKKAVLAYAGLEAETEQPICLLTDILCTTPRGRYDIKVYPTSIALHGKTYDYKIPIKSINRLFLVPHKDGRHVYFVLSLNPPIRQGQTRYSYLIFEFGKDEEQDLELALTDEQLESSNGNLRRDMTGPIYETISILFKSICNLKITVPGRFLGSSGTPAIQCTHRQNPGLLYPMEKGFLFIHKPAMYIRFEEISSCHFARSDSGTVTRTFDFEIDLKYGGPLTFNAMEKEENNKLFDYLNKKNIKIRNSQRVENTVADSSDDEIDPYKAAVTAEGRQRDDSDDDSTDEDYDLDKDIKKKKEDKESSEGTGSEPDDEYDSGSEQDSSGTGESEPDSEQDVPSKRRKGEPKEKREKKEKREKKEGKKGKKDKDPNAPKRATSAYMQWFLASRNELKEDGDSVADVAKKGGAKWKTMSSDDKKKWEEKAEEDKSRYEKEMKEYRKNGPPSSSSKPSSSKTSKKSSGPSSSKAISKEYISDSDDSDDEEPKKKEKKAAPKEESEESNNGSDGSDESDDSD,soluble
12,MAELSDQEMLRYNRQIILRGFDFEGQEALKDARVLVVGLGGLGCAATQYLAGAGVGQLTLLDFDTVSVSNLQRQTLHSDATVGQPKVESARDALARINPHITITPVNARLDDDAMTSLIAGHSLVLDCTDNVSVRNQLNAGCYTAKVPLISGAAIRMEGQVTVFTYRENEPCYRCLSRLFGENALTCVEAGVMAPLIGVIGSLQAMEAIKLLAHYGQPASGKIVMYDAMTCQFREMKLMRNPGCEVCGQ,not soluble
13,MAESYEEWKSFALKLDEETGAQEWKFDNSSPYFDAELISYRYTLLKRYRQQHRTLDLIYLLKEGLTYDIANIGHPMLFAATHVGTKKLIEDYIEEVSQSLAYIASSECITFQRKEKIEFFENCEKAYGQPALMFSGGATLGLFHTGVCKALIEQDLMPKVLSGSSAGAIMTGMLGISASEDIQNLLNGEQFFSDAFHFRKLRELIKGNGGIADVHYLKKFLIENLGDLTFEEAFKKSGLNINVAVAPYDATENPRIMNAIMTPNVLVWSAVLASCAVPVLFPPVRLTSKRYDGEHTPYMANTKWVDGSVRSDFPQERMARLYNLNYTIASQVNPHVVPFMQDDARRFRKDVLSWPERILRRQGKVLSMGLMDFTRQRLGAISPVRRLLDHGYGVVGQRYYGDVNIIAKYSLKHYAYTLQNPRPHLFKRLQREGERATWPKISSIETHARIGKTIQHCLEVLRFEEKKQQPESYYAEALEHHHHHH,soluble
14,MAETDPKTVQDLTSVVQTLLQQMQDKFQTMSDQIIGRIDDMSSRIDDLEKNIADLMTQAGVEELESENKIPATQKS,not soluble
15,MAETVGERPESMSPKLDNATIAAQLGSLATALDEFNRNSGSQVEMSLLLQRVCDQVVDAIADADMAGISLLRDGRVVTVAYTDEAVREIDIPNFQALDGDYFGVAGTRKVVKARLGEAAARWPSVADNLDQAGMRSFLSAPLAVDEALAGTLNIYGQGDHGFSELDAVVLLVYTTAIEGLLRSARSVELARNEVSGLTKAMKSRAVIEQAKGIVMALRGVPADQAFEILVAQSQQEHVKLAEVARRIVESVTTNPE,not soluble
16,MAEVPHHNIPAVDMLNATSRLQLEAQELRNNKPNWGSYFRSQMIQEDDYNFITSFENAKSKEERDQVLAANNANGQAAKTMANLITQVAKDQNVRYVLTLFDDMLQEDKSRVELFHSAAARQKRTVWSQYLGILQRQDNFIVNQMSSIIAKLACFGTTRMEGQDLQYYFSFLKEQLKNSTTNDYMNTTARCLQMMLRHDEYRHEFVDSDGVQTLVTALNGKTNFQLQYQLIFAVWCLTFNADIARKAPSLGLIQALGDILSESTKEKVIRIILASFVNILSKVDEREVKREAALQMVQCKTLKTLELMDAKKYDDPDLEDDVKFLTEELTLSVHDLSSYDEYYSEVRSGRLQWSPVHKSEKFWRENASKFNDKQFEVVKILIKLLESSHDPLILCVASHDIGEYVRHYPRGKTVVEQYQGKAAVMRLLTAEDPNVRYHALLAVQKLMVHNWEYLGKQLDSDVQTDTVAVK,not soluble
17,MAEWNRAKRKRKTIEIQYTGLASNSTLKVTKVTGKHLESMGIPGKFGYEVYPEEAVYLMETGSATISTSSGRDLSLLEAFSILEAMSVPMSKYEAYKHVKRTGLVVLRPRKPTIDFERLRHVEPKIRQKFAEKSFEMLVNRHTVPEERVPNPDSFPSFENRNGQISMKMKVLHTSPALVNFLPLEMLESIQTSTILQNLKPPTPNRPPCRPPSYWPFVDHHVTNWQEFRFQAEQARQETVLRRLKKLRPPSHAELRRERITVENVDFHVFSPASFSHRLPARPLFSLICYSATGPPLKISELAELENVVFAMEEAGKVNFVAMSGASIDLNNYLC,not soluble
18,MAFEATKREWCELYTFFRLLTEGKVTLGTAKAKKGEIDWPIAMIQREEHDGTRCYYIEKEMVRIKGENSEKFVPREDFGIVADLILQAVKSSSEDEVTSPDGVEEFLDEVAIFDLEAKTEDRTDFYIAFWHPEAPLSGFSVRSRLGAMNPLLDGGRAANLKLEQSGVKFATPTVNKINALPEAPNEVAERMLLIERLGGVLKYSDVADRVFRSNLLMIDLHFPRVLTEMVRIMHLDDITRISELTEVIKQMNPLKIKDELVNKHGFYEFKVKQFLMALALGMRPAKIYTGQDSAVEGILLMDGSGEVLCYHKSEKPVMEDFLFLNTRLEKGSLDKDKYGFLERENGTYYFKLNAKIGLVKR,not soluble
